Reference: patent US20140105889A1 (published 2014)

T1: human FcγRIIb (human, UniProt P31994 43-217, limits assumed)
T1 construct: also called FcγIIB; hFcgRIIb
T1 sequence: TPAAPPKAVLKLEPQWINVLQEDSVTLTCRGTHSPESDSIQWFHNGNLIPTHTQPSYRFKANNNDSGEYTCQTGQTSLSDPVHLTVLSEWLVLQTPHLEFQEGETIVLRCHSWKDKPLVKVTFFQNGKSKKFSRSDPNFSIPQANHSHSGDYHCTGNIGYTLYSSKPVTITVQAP

T2: FcγRIIb (human, UniProt P31994 43-217, limits assumed)
T2 construct: also called FcγIIB; FcgRIIb
T2 sequence: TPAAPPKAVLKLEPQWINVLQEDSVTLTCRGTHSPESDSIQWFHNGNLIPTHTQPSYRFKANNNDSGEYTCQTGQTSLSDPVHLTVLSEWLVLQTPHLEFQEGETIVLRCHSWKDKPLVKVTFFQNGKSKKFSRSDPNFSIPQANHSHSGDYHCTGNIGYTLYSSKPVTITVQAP

T3: FcγRIIa type H (human, UniProt P12318 36-217)
T3 construct: also called FcγRIIaH; FcγRIIa(H)
T3 sequence: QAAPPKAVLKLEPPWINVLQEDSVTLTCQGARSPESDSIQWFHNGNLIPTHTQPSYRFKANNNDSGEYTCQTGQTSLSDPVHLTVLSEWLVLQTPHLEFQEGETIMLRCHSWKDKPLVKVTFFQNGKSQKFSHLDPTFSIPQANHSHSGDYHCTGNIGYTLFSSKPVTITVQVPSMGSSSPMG


What was measured:
human FcγRIIb [1] = biological target: T1, human FcγRIIb; test: ratio of this variant's SPR KD for FcγRIIaH to its KD for FcγRIIb
Text: (§1) Furthermore, KD(IIaR)/KD(IIb) and KD(IIaH)/KD(IIb) in the table respectively represent the value obtained by dividing the KD value of each variant for FcγRIIaR by the KD value of each variant for FcγRIIb, and the value obtained by dividing the KD value of each variant for FcγRIIaH by the KD value of each variant for FcγRIIb.

human FcγRIIb [2] = biological target: T1, human FcγRIIb; test: ratio of this variant's SPR KD for FcγRIIaR to its KD for FcγRIIb
Text: as §1

FcγRIIb [3] = biological target: T2, FcγRIIb; test: ratio of SPR KD values of this variant (FcγRIIaH over FcγRIIb)
Text: as §1

FcγRIIa type H = biological target: T3, FcγRIIa type H; test: SPR (Biacore), captured antibody, FcγR as analyte, method of Example 14
FcγRIIb [4] = biological target: T2, FcγRIIb; test: ratio of SPR KD values of this variant (FcγRIIaR over FcγRIIb)
Text: as §1

FcγRIIIa type V = biological target: T4, FcγRIIIa type V (human, UniProt P08637 17-208, limits assumed); test: SPR (Biacore), antibody captured on chip, FcγR as analyte, method of Example 14
T4 construct: Soluble analyte in Biacore; also called FcγRIIIaV; FcγRIIIa(V)
T4 sequence (P08637 other isoform, or with tags, fused parts or gaps limits assumed): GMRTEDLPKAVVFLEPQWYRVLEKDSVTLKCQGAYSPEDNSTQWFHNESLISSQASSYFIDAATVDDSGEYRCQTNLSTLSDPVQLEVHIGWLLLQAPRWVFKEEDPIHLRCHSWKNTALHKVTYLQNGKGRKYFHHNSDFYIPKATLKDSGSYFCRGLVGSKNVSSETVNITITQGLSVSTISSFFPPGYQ

Row | KD (IIaH)/KD (IIb) (human FcγRIIb [1]) | KD (IIaR)/KD (IIb) (human FcγRIIb [2]) | KD (IIaH)/KD (IIb) (FcγRIIb [3]) | Kd (FcγRIIa type H) [µM] | KD (IIaR)/KD (IIb) (FcγRIIb [4]) | Kd (FcγRIIIa type V) [µM] | Binder
1 | 0.3 | 0.4 |  |  |  |  | IL6R-G1d/IL6R-L (antibody, human IgG1, Anti-human IL-6 receptor IgG1 with the G1d constant region (C-terminal Gly and Lys removed); template used for producing IL6R-B3; also called IgG1; copies: 2 + 2) heavy: not shown light: DIQMTQSPSSLSASVGDRVTITCRASQDISSYLNWYQQKPGKAPKLLIYYTSRLHSGVPSRFSGSGSGTDFTFTISSLQPEDIATYYCQQGNTLPYTFGQGTKVEIK
2 |  |  | 93.8 | 9 | 14.5 |  | IL6R-BP148/IL6R-L (antibody, human IgG1, EU numbering) heavy: QVQLQESGPGLVKPSETLSLTCAVSGHSISHDHAWSWVRQPPGEGLEWIGFISYSGITNYNPSLQGRVTISRDNSKNTLYLQMNSLRAEDTAVYYCARSLARTTAMDYWGEGTLVTVSSASTKGPSVFPLAPSSKSTSGGTAALGCLVKDYFPEPVTVSWNSGALTSGVHTFPAVLQSSGLYSLSSVVTVPSSSLGTQTYICNVNHKPSNTKVDKKVEPKSCDKTHTCPPCPAPDYLGDDSVFLFPPKPKDTLMISRTPEVTCVVVDVSHEDPEVKFNWYVDGVEVHNAKTKPREEQYNSTYRVVSVLTVLHQDWLNGKEYKCKVSNAALPKPIEKTISKAKGQPREPQVYTLPPSRDELTKNQVSLTCLVKGFYPSDIAVEWESNGQPENNYKTTPPVLDSDGSFFLYSKLTVDKSRWQQGNVFSCSVMHEALHNHYTQESLSLSP light: DIQMTQSPSSLSASVGDRVTITCRASQDISSYLNWYQQKPGKAPKLLIYYTSRLHSGVPSRFSGSGSGTDFTFTISSLQPEDIATYYCQQGNTLPYTFGQGTKVEIK
3 |  |  |  |  |  | 69 | IL6R-BP206/IL6R-L (antibody, human IgG1, Anti-human IL-6 receptor IgG1 Fc variant) heavy: QVQLQESGPGLVKPSETLSLTCAVSGHSISHDHAWSWVRQPPGEGLEWIGFISYSGITNYNPSLQGRVTISRDNSKNTLYLQMNSLRAEDTAVYYCARSLARTTAMDYWGEGTLVTVSSASTKGPSVFPLAPSSKSTSGGTAALGCLVKDYFPEPVTVSWNSGALTSGVHTFPAVLQSSGLYSLSSVVTVPSSSLGTQTYICNVNHKPSNTKVDKKVEPKSCDKTHTCPPCPAPDLLGGDSVFLFPPKPKDTLMISRTPEVTCVVVDVSHEDGEVKFNWYVDGVEVHNAKTKPREEQYNSTYRVVSVLTVLHQDWLNGKEYKCKVSNKALPRPIEKTISKAKGQPREPQVYTLPPSRDELTKNQVSLTCLVKGFYPSDIAVEWESNGQPENNYKTTPPVLDSDGSFFLYSKLTVDKSRWQQGNVFSCSVMHEALHNHYTQESLSLSP light: DIQMTQSPSSLSASVGDRVTITCRASQDISSYLNWYQQKPGKAPKLLIYYTSRLHSGVPSRFSGSGSGTDFTFTISSLQPEDIATYYCQQGNTLPYTFGQGTKVEIK
4 |  |  | 182 | 2.6 | 20.3 |  | IL6R-BP181/IL6R-L (antibody, human IgG1, EU numbering) heavy: QVQLQESGPGLVKPSETLSLTCAVSGHSISHDHAWSWVRQPPGEGLEWIGFISYSGITNYNPSLQGRVTISRDNSKNTLYLQMNSLRAEDTAVYYCARSLARTTAMDYWGEGTLVTVSSASTKGPSVFPLAPSSKSTSGGTAALGCLVKDYFPEPVTVSWNSGALTSGVHTFPAVLQSSGLYSLSSVVTVPSSSLGTQTYICNVNHKPSNTKVDKKVEPKSCDKTHTCPPCPAPDLLGGDSVFLFPPKPKDTLMISRTPEVTCVVVDVSHEDGEVKFNWYVDGVEVHNAKTKPREEQYNSTYRVVSVLTVLHQDWLNGKEYKCKVSNAALPKPIEKTISKAKGQPREPQVYTLPPSRDELTKNQVSLTCLVKGFYPSDIAVEWESNGQPENNYKTTPPVLDSDGSFFLYSKLTVDKSRWQQGNVFSCSVMHEALHNHYTQESLSLSP light: DIQMTQSPSSLSASVGDRVTITCRASQDISSYLNWYQQKPGKAPKLLIYYTSRLHSGVPSRFSGSGSGTDFTFTISSLQPEDIATYYCQQGNTLPYTFGQGTKVEIK
5 |  |  | 159 | 6.2 | 13.6 |  | IL6R-BP177/IL6R-L (antibody, human IgG1, EU numbering) heavy: QVQLQESGPGLVKPSETLSLTCAVSGHSISHDHAWSWVRQPPGEGLEWIGFISYSGITNYNPSLQGRVTISRDNSKNTLYLQMNSLRAEDTAVYYCARSLARTTAMDYWGEGTLVTVSSASTKGPSVFPLAPSSKSTSGGTAALGCLVKDYFPEPVTVSWNSGALTSGVHTFPAVLQSSGLYSLSSVVTVPSSSLGTQTYICNVNHKPSNTKVDKKVEPKSCDKTHTCPPCPAPDYLGDDSVFLFPPKPKDTLMISRTPEVTCVVVDVSHEDGEVKFNWYVDGVEVHNAKTKPREEQYNSTYRVVSVLTVLHQDWLNGKEYKCKVSNDALPKPIEKTISKAKGQPREPQVYTLPPSRDELTKNQVSLTCLVKGFYPSDIAVEWESNGQPENNYKTTPPVLDSDGSFFLYSKLTVDKSRWQQGNVFSCSVMHEALHNHYTQESLSLSP light: DIQMTQSPSSLSASVGDRVTITCRASQDISSYLNWYQQKPGKAPKLLIYYTSRLHSGVPSRFSGSGSGTDFTFTISSLQPEDIATYYCQQGNTLPYTFGQGTKVEIK
6 |  |  | 109 |  | 17.7 |  | IL6R-BP150/IL6R-L (antibody, human IgG1, EU numbering) heavy: QVQLQESGPGLVKPSETLSLTCAVSGHSISHDHAWSWVRQPPGEGLEWIGFISYSGITNYNPSLQGRVTISRDNSKNTLYLQMNSLRAEDTAVYYCARSLARTTAMDYWGEGTLVTVSSASTKGPSVFPLAPSSKSTSGGTAALGCLVKDYFPEPVTVSWNSGALTSGVHTFPAVLQSSGLYSLSSVVTVPSSSLGTQTYICNVNHKPSNTKVDKKVEPKSCDKTHTCPPCPAPEYLGDDSVFLFPPKPKDTLMISRTPEVTCVVVDVSHEDPEVKFNWYVDGVEVHNAKTKPREEQYNSTYRVVSVLTVLHQDWLNGKEYKCKVSNAALPRPIEKTISKAKGQPREPQVYTLPPSRDELTKNQVSLTCLVKGFYPSDIAVEWESNGQPENNYKTTPPVLDSDGSFFLYSKLTVDKSRWQQGNVFSCSVMHEALHNHYTQESLSLSP light: DIQMTQSPSSLSASVGDRVTITCRASQDISSYLNWYQQKPGKAPKLLIYYTSRLHSGVPSRFSGSGSGTDFTFTISSLQPEDIATYYCQQGNTLPYTFGQGTKVEIK
7 |  |  | 118 |  | 16.9 |  | IL6R-BP151/IL6R-L (antibody, human IgG1, EU numbering) heavy: QVQLQESGPGLVKPSETLSLTCAVSGHSISHDHAWSWVRQPPGEGLEWIGFISYSGITNYNPSLQGRVTISRDNSKNTLYLQMNSLRAEDTAVYYCARSLARTTAMDYWGEGTLVTVSSASTKGPSVFPLAPSSKSTSGGTAALGCLVKDYFPEPVTVSWNSGALTSGVHTFPAVLQSSGLYSLSSVVTVPSSSLGTQTYICNVNHKPSNTKVDKKVEPKSCDKTHTCPPCPAPDYLGDDSVFLFPPKPKDTLMISRTPEVTCVVVDVSHEDPEVKFNWYVDGVEVHNAKTKPREEQYNSTYRVVSVLTVLHQDWLNGKEYKCKVSNAALPRPIEKTISKAKGQPREPQVYTLPPSRDELTKNQVSLTCLVKGFYPSDIAVEWESNGQPENNYKTTPPVLDSDGSFFLYSKLTVDKSRWQQGNVFSCSVMHEALHNHYTQESLSLSP light: DIQMTQSPSSLSASVGDRVTITCRASQDISSYLNWYQQKPGKAPKLLIYYTSRLHSGVPSRFSGSGSGTDFTFTISSLQPEDIATYYCQQGNTLPYTFGQGTKVEIK
8 |  |  | 272 | 1.4 | 18.1 |  | IL6R-BP178/IL6R-L (antibody, human IgG1, EU numbering) heavy: QVQLQESGPGLVKPSETLSLTCAVSGHSISHDHAWSWVRQPPGEGLEWIGFISYSGITNYNPSLQGRVTISRDNSKNTLYLQMNSLRAEDTAVYYCARSLARTTAMDYWGEGTLVTVSSASTKGPSVFPLAPSSKSTSGGTAALGCLVKDYFPEPVTVSWNSGALTSGVHTFPAVLQSSGLYSLSSVVTVPSSSLGTQTYICNVNHKPSNTKVDKKVEPKSCDKTHTCPPCPAPDLLGDDSVFLFPPKPKDTLMISRTPEVTCVVVDVSHEDGEVKFNWYVDGVEVHNAKTKPREEQYNSTYRVVSVLTVLHQDWLNGKEYKCKVSNKALPKPIEKTISKAKGQPREPQVYTLPPSRDELTKNQVSLTCLVKGFYPSDIAVEWESNGQPENNYKTTPPVLDSDGSFFLYSKLTVDKSRWQQGNVFSCSVMHEALHNHYTQESLSLSP light: DIQMTQSPSSLSASVGDRVTITCRASQDISSYLNWYQQKPGKAPKLLIYYTSRLHSGVPSRFSGSGSGTDFTFTISSLQPEDIATYYCQQGNTLPYTFGQGTKVEIK
9 |  |  | 83.1 | 3 | 19.1 |  | IL6R-BP176/IL6R-L (antibody, human IgG1, EU numbering) heavy: QVQLQESGPGLVKPSETLSLTCAVSGHSISHDHAWSWVRQPPGEGLEWIGFISYSGITNYNPSLQGRVTISRDNSKNTLYLQMNSLRAEDTAVYYCARSLARTTAMDYWGEGTLVTVSSASTKGPSVFPLAPSSKSTSGGTAALGCLVKDYFPEPVTVSWNSGALTSGVHTFPAVLQSSGLYSLSSVVTVPSSSLGTQTYICNVNHKPSNTKVDKKVEPKSCDKTHTCPPCPAPDLLGGDSVFLFPPKPKDTLMISRTPEVTCVVVDVSHEDPEVKFNWYVDGVEVHNAKTKPREEQYNSTYRVVSVLTVLHQDWLNGKEYKCKVSNDALPKPIEKTISKAKGQPREPQVYTLPPSRDELTKNQVSLTCLVKGFYPSDIAVEWESNGQPENNYKTTPPVLDSDGSFFLYSKLTVDKSRWQQGNVFSCSVMHEALHNHYTQESLSLSP light: DIQMTQSPSSLSASVGDRVTITCRASQDISSYLNWYQQKPGKAPKLLIYYTSRLHSGVPSRFSGSGSGTDFTFTISSLQPEDIATYYCQQGNTLPYTFGQGTKVEIK
